Data published in US20130071921A1 (Pfizer, published 2013).

T1: Recombinant human Dkk-1 (R&D Systems cat no. 1096-DK/CF), 10xHis tag at the C terminal (human, UniProt O94907 32-266)
T1 construct: the actual N-terminus of the purified protein is marked in bold italic after residue 30, but the mark is an image lost in the text; also called rhuDkk-1; hDkk-1
T1 sequence: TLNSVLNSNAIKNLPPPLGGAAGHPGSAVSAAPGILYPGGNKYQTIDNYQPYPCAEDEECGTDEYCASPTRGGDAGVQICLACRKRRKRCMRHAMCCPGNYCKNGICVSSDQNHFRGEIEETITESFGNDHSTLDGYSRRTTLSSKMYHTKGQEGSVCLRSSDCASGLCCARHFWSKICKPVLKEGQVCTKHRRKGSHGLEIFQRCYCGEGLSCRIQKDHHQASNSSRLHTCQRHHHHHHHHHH

B1: L2.4D11 (Fab, V domains shown)
VH: EVQLVESGGGLVQPGGSLRLSCAASGFTFSSYAISWVRQAPGKGLEWVASVSGWMDTYYPDSVKGRFTISRDNAKNSLYLQMNSLRAEDTAVYYCATSLENYAFDYWGQGTTVTVSS
VL: EIVLTQSPATLSLSPGERATLSCRASESVDDFGISFMNWYQQKPGQAPRLLIYAASKQGSGIPARFSGSGSGTDFTLTISSLEPEDFAVYYCQQSKEVPPTFGGGTKVEIK
notes: tested as Fab (E. coli lysate, screening mode); human kappa CL and IgG2 CH1 not included here
B2: L2.4G10 (Fab, V domains shown)
VH: EVQLVESGGGLVQPGGSLRLSCAASGFTFSSYAISWVRQAPGKGLEWVASVSGWLDTYYPDSVKGRFTISRDNAKNSLYLQMNSLRAEDTAVYYCATSLRNYAFDYWGQGTTVTVSS
VL: EIVLTQSPATLSLSPGERATLSCRASESVDDFGISFMNWYQQKPGQAPRLLIYAASKQGSGIPARFSGSGSGTDFTLTISSLEPEDFAVYYCQQSKEVPPTFGGGTKVEIK
notes: as for B1
B3: L2.P4.B5 (Fab, V domains shown)
VH: EVQLVESGGGLVQPGGSLRLSCAASGFTFSSYAISWVRQAPGKGLEWVASVSGWGDTYYPDSVKGRFTISRDNAKNSLYLQMNSLRAEDTAVYYCATSYENYAFDYWGQGTTVTVSS
VL: EIVLTQSPATLSLSPGERATLSCRASESVDDFGISFMNWYQQKPGQAPRLLIYAASKQGSGIPARFSGSGSGTDFTLTISSLEPEDFAVYYCQQSKEVPPTFGGGTKVEIK
notes: as for B1
B4: L2.P4.C10 (Fab, V domains shown)
VH: EVQLVESGGGLVQPGGSLRLSCAASGFTFSSYAISWVRQAPGKGLEWVASVSGWGDTYYPDSVKGRFTISRDNAKNSLYLQMNSLRAEDTAVYYCATSLKNYAFDYWGQGTTVTVSS
VL: EIVLTQSPATLSLSPGERATLSCRASESVDDFGISFMNWYQQKPGQAPRLLIYAASKQGSGIPARFSGSGSGTDFTLTISSLEPEDFAVYYCQQSKEVPPTFGGGTKVEIK
notes: as for B1
B5: L2.P4.E7 (Fab, V domains shown)
VH: EVQLVESGGGLVQPGGSLRLSCAASGFTFSSYAISWVRQAPGKGLEWVASVSGWGDTYYPDSVKGRFTISRDNAKNSLYLQMNSLRAEDTAVYYCATSLRNYAFDYWGQGTTVTVSS
VL: EIVLTQSPATLSLSPGERATLSCRASESVDDFGISFMNWYQQKPGQAPRLLIYAASKQGSGIPARFSGSGSGTDFTLTISSLEPEDFAVYYCQQSKEVPPTFGGGTKVEIK
notes: as for B1
B6: L2.P4.H3 (Fab, V domains shown)
VH: EVQLVESGGGLVQPGGSLRLSCAASGFTFSSYAISWVRQAPGKGLEWVASVSGWLDTYYPDSVKGRFTISRDNAKNSLYLQMNSLRAEDTAVYYCATSLENYAFDYWGQGTTVTVSS
VL: EIVLTQSPATLSLSPGERATLSCRASESVDDFGISFMNWYQQKPGQAPRLLIYAASKQGSGIPARFSGSGSGTDFTLTISSLEPEDFAVYYCQQSKEVPPTFGGGTKVEIK
notes: as for B1
B7: L3.1A3 (Fab, V domains shown)
VH: EVQLVESGGGLVQPGGSLRLSCAASGFTFSSYAISWVRQAPGKGLEWVASVSGWFHTYYPDSVKGRFTISRDNAKNSLYLQMNSLRAEDTAVYYCATSLRNYAFDYWGQGTTVTVSS
VL: EIVLTQSPATLSLSPGERATLSCRASESVDDFGISFINWYQQKPGQAPRLLIYAGSKQGSGIPARFSGSGSGTDFTLTISSLEPEDFAVYYCQQLKEVPPTFGGGTKVEIK
notes: as for B1
B8: L3.1B12 (Fab, V domains shown)
VH: EVQLVESGGGLVQPGGSLRLSCAASGFTFSSYAISWVRQAPGKGLEWVASVSGWFGTYYPDSVKGRFTISRDNAKNSLYLQMNSLRAEDTAVYYCATSLENYAFDYWGQGTTVTVSS
VL: EIVLTQSPATLSLSPGERATLSCRASESVDDFGISFINWYQQKPGQAPRLLIYAGSKQGSGIPARFSGSGSGTDFTLTISSLEPEDFAVYYCQQLKEVPPTFGGGTKVEIK
notes: as for B1
B9: L3.1D7 (Fab, V domains shown)
VH: EVQLVESGGGLVQPGGSLRLSCAASGFTFSSYAISWVRQAPGKGLEWVASVSGWFRTYYPDSVKGRFTISRDNAKNSLYLQMNSLRAEDTAVYYCATSLRNYAFDYWGQGTTVTVSS
VL: EIVLTQSPATLSLSPGERATLSCRASESVDDFGISFINWYQQKPGQAPRLLIYAGSKQGSGIPARFSGSGSGTDFTLTISSLEPEDFAVYYCQQLKEVPPTFGGGTKVEIK
notes: as for B1
B10: L3.1H3 (Fab, V domains shown)
VH: EVQLVESGGGLVQPGGSLRLSCAASGFTFSSYAISWVRQAPGKGLEWVASVSGWLHTYYPDSVKGRFTISRDNAKNSLYLQMNSLRAEDTAVYYCATSLENYAFDYWGQGTTVTVSS
VL: EIVLTQSPATLSLSPGERATLSCRASESVDDFGISFINWYQQKPGQAPRLLIYAGSKQGSGIPARFSGSGSGTDFTLTISSLEPEDFAVYYCQQLKEVPPTFGGGTKVEIK
notes: as for B1
B11: L3.2H8 (Fab, V domains shown)
VH: EVQLVESGGGLVQPGGSLRLSCAASGFTFSSYAISWVRQAPGKGLEWVASVSGWLGTYYPDSVKGRFTISRDNAKNSLYLQMNSLRAEDTAVYYCATSLQNYAFDYWGQGTTVTVSS
VL: EIVLTQSPATLSLSPGERATLSCRASESVDDFGISFINWYQQKPGQAPRLLIYAGSKQGSGIPARFSGSGSGTDFTLTISSLEPEDFAVYYCQQLKEVPPTFGGGTKVEIK
notes: as for B1
B12: L3.2H10 (Fab, V domains shown)
VH: EVQLVESGGGLVQPGGSLRLSCAASGFTFSSYAISWVRQAPGKGLEWVASVSGWLGTYYPDSVKGRFTISRDNAKNSLYLQMNSLRAEDTAVYYCATSLKNYAFDYWGQGTTVTVSS
VL: EIVLTQSPATLSLSPGERATLSCRASESVDDFGISFINWYQQKPGQAPRLLIYAGSKQGSGIPARFSGSGSGTDFTLTISSLEPEDFAVYYCQQLKEVPPTFGGGTKVEIK
notes: as for B1
B13: L3.4E6 (Fab, V domains shown)
VH: EVQLVESGGGLVQPGGSLRLSCAASGFTFSSYAISWVRQAPGKGLEWVASVSGGLGTYYPDSVKGRFTISRDNAKNSLYLQMNSLRAEDTAVYYCATSLRNYAFDYWGQGTTVTVSS
VL: EIVLTQSPATLSLSPGERATLSCRASESVDDFGISFINWYQQKPGQAPRLLIYAGSKQGSGIPARFSGSGSGTDFTLTISSLEPEDFAVYYCQQLKEVPPTFGGGTKVEIK
notes: as for B1
B14: L3.4E7 (Fab, V domains shown)
VH: EVQLVESGGGLVQPGGSLRLSCAASGFTFSSYAISWVRQAPGKGLEWVASVSGWGDTYYPDSVKGRFTISRDNAKNSLYLQMNSLRAEDTAVYYCATSLQNYAFDYWGQGTTVTVSS
VL: EIVLTQSPATLSLSPGERATLSCRASESVDDFGISFINWYQQKPGQAPRLLIYAGSKQGSGIPARFSGSGSGTDFTLTISSLEPEDFAVYYCQQLKEVPPTFGGGTKVEIK
notes: tested as Fab (E. coli lysate, screening mode); human kappa CL and IgG2 CH1 not included here; printed changes identical to L3.4H2
B15: L3.4E10 (Fab, V domains shown)
VH: EVQLVESGGGLVQPGGSLRLSCAASGFTFSSYAISWVRQAPGKGLEWVASVSGWGHTYYPDSVKGRFTISRDNAKNSLYLQMNSLRAEDTAVYYCATSLQNYAFDYWGQGTTVTVSS
VL: EIVLTQSPATLSLSPGERATLSCRASESVDDFGISFINWYQQKPGQAPRLLIYAGSKQGSGIPARFSGSGSGTDFTLTISSLEPEDFAVYYCQQLKEVPPTFGGGTKVEIK
notes: as for B1

How the values were obtained:
[1] = molecular target: T1, Recombinant human Dkk-1 (R&D Systems …); assay: theoretical: koff / estimated kon 1e6 1/Ms (SPR screening 37C)
Method: (§1) For screening assays to determine binding and dissociation rates of huMabJC18 variants to human Dkk1, either BIAcore or ProteOn XPR36 (BioRad, Inc.) systems were used. For the BIAcore assay, biotinylated-human Dkk1 was captured on SA (streptavidin) BIAcore chips according to the supplier's instructions. Biotinylated-human Dkk-1 protein was diluted into HBS-EP, and injected over the chip at a concentration of 5 μg/mL. Flow times across the individual chip channels were selected to achieve an antigen density of approximately 500-600 response units (RU). HBS-EP buffer was used as running buffer. Filtered recombinant E.coli cell lysates were injected at high temperature (37° C.) for 1 min at 30 ul/min, allowing a 1-5 min dissociation phase. Surfaces were regenerated with 8 mM NaOH+8% ethanol. A positive control Fab (clone 24) was injected twice at the start of the experiment, and again at the end of the assay to assess reproducibility.
For the ProteOn assay, biotinylated human Dkk-1 was injected for 1 min at serial fold dilutions empirically determined to yield different levels of immobilization (150-3000 RU) on five channels of a ProteOn NLC Neutravidin sensor chip. The sixth channel was left unmodified to serve as a reference surface. Recombinant Fabs in filtered E. coli lysates were injected at high temperature (37° C.) for 50 sec at 20 μl/min. Running buffer consisted of PBS+1 mg/ml BSA+0.005% Tween-20. The ProteOn is configured such that each injection flows over each of the five Dkk-1 channels as well as the reference channel, and six Fab samples can be injected simultaneously. Fab dissociation from the Dkk-1 surface was monitored for 20 min. The chip surface was regenerated with a 30-sec injection of 8% EtOH, 8 mM NaOH. Clone 24 Fab was used as control. Level of binding during association, and rate of dissociation for each clone was very consistent between different ligand channels. […]

[2] = molecular target: T1, Recombinant human Dkk-1 (R&D Systems …); assay: SPR screening 37C (BIAcore/ProteOn), Fab lysate over biotinylated human Dkk-1
Method: as §1
For the ProteOn assay, biotinylated human Dkk-1 was injected for 1 min at serial fold dilutions empirically determined to yield different levels of immobilization (150-3000 RU) on five channels of a ProteOn NLC Neutravidin sensor chip. The sixth channel was left unmodified to serve as a reference surface. Recombinant Fabs in filtered E. coli lysates were injected at high temperature (37° C.) for 50 sec at 20 μl/min. Running buffer consisted of PBS+1 mg/ml BSA+0.005% Tween-20. The ProteOn is configured such that each injection flows over each of the five Dkk-1 channels as well as the reference channel, and six Fab samples can be injected simultaneously. Fab dissociation from the Dkk-1 surface was monitored for 20 min. The chip surface was regenerated with a 30-sec injection of 8% EtOH, 8 mM NaOH. Clone 24 Fab was used as control. Level of binding during association, and rate of dissociation for each clone was very consistent between different ligand channels.

Row | Binder | Kd [1] | koff [2]
1 | B1 | 3.26 nM | 0.00326 s⁻¹
2 | B2 | 2.76 nM | 0.00276 s⁻¹
3 | B3 | 5.32 nM | 0.00532 s⁻¹
4 | B4 | 4.31 nM | 0.00431 s⁻¹
5 | B5 | 5.19 nM | 0.00519 s⁻¹
6 | B6 | 2.74 nM | 0.00274 s⁻¹
7 | B7 | 0.184 nM | 0.00018 s⁻¹
8 | B8 | 0.21 nM | 0.00021 s⁻¹
9 | B9 | 0.164 nM | 0.000164 s⁻¹
10 | B10 | 1.15 nM | 0.00115 s⁻¹
11 | B11 | 0.555 nM | 0.000555 s⁻¹
12 | B12 | 0.569 nM | 0.000569 s⁻¹
13 | B13 | 0.99 nM | 0.00099 s⁻¹
14 | B14 | 0.276 nM | 0.000276 s⁻¹
15 | B15 | 0.533 nM | 0.000533 s⁻¹
